Results taken from PMC4906247, “Death-Associated Protein Kinase Activity Is Regulated by Coupled Calcium/Calmodulin Binding to Two Distinct Sites” (Structure(London, England:1993), 2016).

B1: human death-associated protein kinase 3, catalytic domain (hDAPK3 CD, residues 1-274) (domain or fragment, UniProt O43293 1-274, looked up)
chain: MSTFRQEDVEDHYEMGEELGSGQFAIVRKCRQKGTGKEYAAKFIKKRRLSSSRRGVSREEIEREVNILREIRHPNIITLHDIFENKTDVVLILELVSGGELFDFLAEKESLTEDEATQFLKQILDGVHYLHSKRIAHFDLKPENIMLLDKNVPNPRIKLIDFGIAHKIEAGNEFKNIFGTPEFVAPEIVNYEPLGLEADMWSIGVITYILLSGASPFLGETKQETLTNISAVNYDFDEEYFSNTSELAKDFIRRLLVKDPKRRMTIAQSLEHSW
notes: death-associated protein kinase 3, human, CD, residues 1-274; Dimer in the crystal; also called hDAPK3 CD construct; source: E. coli Rosetta (DE3) pLysS, purified (glutathione Sepharose, TEV cleavage, SEC); not shown: GST, N-terminal, cleaved
B2: human death-associated protein kinase 1, catalytic domain and most of the autoregulatory domain (hDAPK1 CD + ARD, residues 1-312) (domain or fragment, UniProt P53355 1-312, looked up)
chain: MTVFRQENVDDYYDTGEELGSGQFAVVKKCREKSTGLQYAAKFIKKRRTKSSRRGVSREDIEREVSILKEIQHPNVITLHEVYENKTDVILILELVAGGELFDFLAEKESLTEEEATEFLKQILNGVYYLHSLQIAHFDLKPENIMLLDRNVPKPRIKIIDFGLAHKIDFGNEFKNIFGTPEFVAPEIVNYEPLGLEADMWSIGVITYILLSGASPFLGDTKQETLANVSAVNYEFEDEYFSNTSALAKDFIRRLLVKDPKKRMTIQDSLQHPWIKPKDTQQALSRKASAVNMEKFKKFAARKKWKQSVRLI
notes: death-associated protein kinase 1, human, CD and most of the ARD, residues 1-312; Dimer in the crystal; also called hDAPK1 CD + ARD construct (1-312); source: E. coli BL21(DE3), purified (Ni-NTA, TEV cleavage, SEC); not shown: His6, N-terminal, cleaved

Biological target: the molecule itself
Test: crystal structure; hDAPK1 CD + ARD (2.0 Å), hDAPK2 CD + ARD (1.47 Å) and hDAPK3 CD (3.1 Å) crystallised by vapor diffusion; homodimers in the crystals

Row | Protein | binding result
1 | B1 | binds
2 | B2 | binds
